Assay results reported in patent publication US20200024360A1 (Janssen / Centocor, published 2020).

T1: Cynomolgous monkey PSMA, full length (Macaca fascicularis, UniProt Q04609 1-750 (human entry))
T1 construct: On transfected HEK293F cells; also called cyno PSMA; EHH56646.1
T1 chain: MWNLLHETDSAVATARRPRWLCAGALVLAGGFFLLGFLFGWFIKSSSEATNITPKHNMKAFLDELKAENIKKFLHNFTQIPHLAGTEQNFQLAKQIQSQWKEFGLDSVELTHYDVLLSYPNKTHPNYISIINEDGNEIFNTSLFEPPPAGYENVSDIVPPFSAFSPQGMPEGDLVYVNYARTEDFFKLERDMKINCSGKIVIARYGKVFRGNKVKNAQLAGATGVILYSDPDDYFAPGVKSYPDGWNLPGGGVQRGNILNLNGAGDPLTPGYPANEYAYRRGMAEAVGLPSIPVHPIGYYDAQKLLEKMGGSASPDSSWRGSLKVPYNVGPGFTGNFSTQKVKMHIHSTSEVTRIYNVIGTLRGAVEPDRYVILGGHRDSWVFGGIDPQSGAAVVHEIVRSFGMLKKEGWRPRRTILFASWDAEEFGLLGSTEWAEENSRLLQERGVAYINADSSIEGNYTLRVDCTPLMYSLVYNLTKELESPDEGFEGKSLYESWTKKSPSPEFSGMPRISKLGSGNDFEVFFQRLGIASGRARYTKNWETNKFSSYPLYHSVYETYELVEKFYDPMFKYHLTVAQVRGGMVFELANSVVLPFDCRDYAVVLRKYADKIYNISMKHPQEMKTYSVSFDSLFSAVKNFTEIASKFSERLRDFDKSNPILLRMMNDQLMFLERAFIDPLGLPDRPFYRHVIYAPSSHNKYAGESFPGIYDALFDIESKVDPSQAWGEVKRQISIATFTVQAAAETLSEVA

B1: PSMB49 (Fab, V domains shown)
VH: QVQLVQSGAEVKKPGSSVKVSCKASGGTFSSYAISWVRQAPGQGLEWMGGIIPIFGTANYAQKFQGRVTITADESTSTAYMELSSLRSEDTAVYYCARASRVWHASYGYLDYWGQGTLVTVSS
VL: EIVLTQSPATLSLSPGERATLSCRASQSVSKWLAWYQQKPGQAPRLLIYDASNRATGIPARFSGSGSGTDFTLTISSLEPEDFAVYYCQQRFTAPWTFGQGTKVEIK
notes: Fab; also called PSMM50; Fab of mAb PSMB121
B2: G11 (antibody, human IgG1, kappa, V domains shown)
VH: EVQLLESGGGLVQPGGSLRLSCAASGFTFSSYGMSWVRQAPGKGLEWVSGINGGGGSKYYADSVKGRFTISRDNSKNTLYLQMNSLRAEDTAVYYCAKTSAQRFDYWGQGTLVTVSS
VL: DIQMTQSPSSLSASVGDRVTITCRASQSISSYLNWYQQKPGAPKLLIYAASSLQSGVPSRFSGSGSGTDFTLTISSLQPEDFATYYCQQSYSLPLTFGQGTKVEIKR
notes: In-house phage-derived anti-CD3 control; also called GI

What was measured:
[1] = target: T1, Cynomolgous monkey PSMA, full length; experiment: flow cytometry, mammalian Fab supernatant titrated on cyno PSMA (PSMG5) HEK cells, anti-human kappa-RPE
Experimental: Plates were read on a BD FACS Array flow cytometer. FACS data was analyzed in FlowJo software by live gating the healthy population of cells using forward scatter and side scatter, and then analyzing the cells within this gate for PE staining. Mean fluorescence intensity (MFI) was calculated and exported into Microsoft Excel. […] Fabs were sequenced and moved forward for cloning into mammalian expression vector for rescreening. True positives were selected from the binding of mammalian cell expressed Fab supernatants to PSMA-expressing cell lines.
Binding profiles among hits were compared across cell lines expressing different species of PSMA.

[2] = target: T2, cynomolgus CD3ε on primary cynomolgus CD4+ T cells (cynomolgus monkey, UniProt Q95LI5 22-198); experiment: FACS, primary cynomolgus CD4+ T cells
T2 construct: whole, on cells
T2 sequence (Q95LI5 22-198): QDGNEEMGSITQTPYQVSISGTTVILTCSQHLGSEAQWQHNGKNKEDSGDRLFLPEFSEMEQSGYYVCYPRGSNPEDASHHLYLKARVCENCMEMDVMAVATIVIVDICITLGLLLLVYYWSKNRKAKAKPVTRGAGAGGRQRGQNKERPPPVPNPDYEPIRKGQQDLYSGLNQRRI

Row | Binder | EC50 (read off the curve) [1] | binding result [2]
1 | B1 | ~0.2 µg/mL | 
2 | B2 |  | no binding
